Data on two molecules can be found in patent US20200325237A1 (AVIDITY BIOSCIENCES, published 2020).

Experiment [1] has as its target T1, TfR2 (transferrin receptor 2) (UniProt Q9UP52 105-801, limits assumed).
T1 sequence (looked up): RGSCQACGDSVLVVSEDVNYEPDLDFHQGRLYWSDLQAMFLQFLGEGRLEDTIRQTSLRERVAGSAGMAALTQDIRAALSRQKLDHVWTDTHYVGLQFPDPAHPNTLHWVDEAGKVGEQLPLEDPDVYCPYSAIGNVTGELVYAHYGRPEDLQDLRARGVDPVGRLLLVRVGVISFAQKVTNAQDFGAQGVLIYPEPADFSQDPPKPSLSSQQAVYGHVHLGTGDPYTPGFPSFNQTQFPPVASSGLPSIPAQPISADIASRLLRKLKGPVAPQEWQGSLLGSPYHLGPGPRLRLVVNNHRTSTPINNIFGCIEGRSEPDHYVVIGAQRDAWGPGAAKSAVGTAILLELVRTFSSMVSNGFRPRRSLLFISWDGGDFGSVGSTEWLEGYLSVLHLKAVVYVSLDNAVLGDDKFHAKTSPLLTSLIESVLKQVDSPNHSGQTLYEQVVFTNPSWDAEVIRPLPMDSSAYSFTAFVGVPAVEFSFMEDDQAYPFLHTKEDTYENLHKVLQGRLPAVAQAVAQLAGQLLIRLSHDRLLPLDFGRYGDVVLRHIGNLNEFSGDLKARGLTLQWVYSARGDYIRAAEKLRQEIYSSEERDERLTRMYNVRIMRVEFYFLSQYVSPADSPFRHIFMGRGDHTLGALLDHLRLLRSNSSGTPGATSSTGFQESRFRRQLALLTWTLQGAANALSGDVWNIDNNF
Description: A450 plate assay on TfR2 (method not described in the text).

The target in experiment [2] is T2, recombinant human transferrin receptor protein (Sino Biological 11020-H07H) (human, UniProt P02786 89-760).
T2 construct: Bought protein coated on ELISA plates; also called recombinant human TfR1; human TfR1
Description: ELISA on plate-coated recombinant human TfR1 (CD71); fit: specific binding with Hill slope (row labels blank in the lower block; row taken by the order Bmax, h, Kd). As for the experimental part: (§1) Half-well high-binding 96-well plates (Costar #3690) were coated with recombinant human transferrin receptor protein (Sino Biological 11020-H07H) or recombinant cyno transferrin receptor protein (Sino Biological 90253-C07H) at 1 ng/μL in PBS (Gibco 14190) and incubated overnight at 4° C. Plates were washed four times with 100 μL of Tris buffered saline+Tween (20×TBST, Cell Signaling 9997S). 100 μL of Superblock (ThermoFisher PI-37535) was added to each well and incubated for 1 hour at room temperature. The wash step was repeated before the addition of the samples. Samples were added at concentrations up to 10 nM, 50 μL/well. Plates were incubated for another hour at room temp and wash step repeated. Secondary antibody (Peroxidase AffiniPure Goat Anti-Human IgG, Fcγ Fragment Specific, Jackson Immunoresearch, 109-035-098) was diluted 1:5000 in Superblock and 50 μL/well added. Plates were incubated for 1 hour at room temperature and washed one more time. Binding was measured by the addition of 50 μL of 1-Step™ Ultra TMB-ELISA (ThermoFisher, 34028), incubated for 5 minutes, and the reaction was stopped with the addition of 25 μL of Stop Solution 2N sulfuric Acid (R&D Systems DY994). Absorbance was measured at 450 nm, with reference wavelength 570 nm subtracted. Binding constants were determined using GraphPad Prism Specific Binding with Hill Slope.

In experiment [3] the target is T3, hTfR (human transferrin receptor, source and construct not stated) (human, UniProt P02786 89-760, limits assumed). Kind of experiment: ELISA; ratio of the Kd on transferrin-captured hTfR to the Kd on directly coated hTfR. On the procedure: (§2) Antibodies were biotinylated using 50 fold molar excess of EZ-Link No weigh NHS-Biotin (Thermo Scientific A39256) following manufacturer's instructions. Half-well high-bind plates (Costar #3690) were coated with 500 ng/mL purified human holo-transferrin (R&D Systems 2914-HT) in PBS at 4° C. overnight. For comparison, plates were coated directly with hTfR. Plates were washed four times with 100 μL of Tris buffered saline+Tween (20×TBST, Cell Signaling 9997S). 100 μL of Superblock (ThermoFisher PI-37535) was added to each well and incubated for 1 hour at room temperature. The wash step was repeated before the addition of the hTfR (200 ng/mL in 25 μl) to the transferrin plates, or Superblock to the hTfR plates, and incubated for 30 minutes. Biotinylated antibodies were diluted to 20 nM for the high concentration and added to the plates with 3-fold serial dilution. 25 μl/well was added to the 25 μl already in the plate. Plates were incubated for 1 hour, and wash step was repeated. Streptavidin-HRP (R&D Systems DY998) was added following recommended dilution on the package insert, and a final wash step was done. Binding was measured by the addition of 50 μL of 1-Step™ Ultra TMB-ELISA (ThermoFisher, 34028), incubated for 5 minutes, and the reaction was stopped with the addition of 25 μL of Stop Solution 2N sulfuric Acid (R&D Systems DY994). Absorbance was measured at 450 nm, with reference wavelength 570 nm subtracted. Binding constants were determined using GraphPad Prism Specific Binding with Hill Slope. Change in antibody binding constants in the presence versus absense of transferrin is considered relative to the commercially available antibody which is known to have an overlapping epitope with transferrin (AF2474, R&D Systems).

Experiment [4] concerns the target T3, hTfR (human transferrin receptor, …). Kind of experiment: ELISA, biotinylated antibody on hTfR captured by plate-coated human holo-transferrin (Tf+TfR); fit: specific binding with Hill slope. On the procedure: as §2
Experiment [5] has the same target. Description: ELISA; ratio of the Kd on HFE-captured hTfR to the Kd on directly coated hTfR.
The target in experiment [6] is T4, recombinant cyno transferrin receptor protein (Sino Biological 90253-C07H) (cyno, UniProt H9EXL1 89-760 (rhesus entry)).
T4 construct: Bought protein coated on ELISA plates; also called recombinant cyno TfR1; cynoTfR1
Kind of experiment: ELISA on plate-coated recombinant cyno TfR1 (CD71); fit: specific binding with Hill slope. As for the experimental part:
as §1

Experiment [7] has as its target T3, hTfR (human transferrin receptor, …). Description: SPR (BioRad ProteOn XPR36), mAb captured on Protein A, hTfR as analyte, 25 C. As for the experimental part: The binding kinetics of nine exemplary humanized anti-TfR antibodies and the parent chimeric antibody were characterized. Studies were run on a BioRad ProteOn XPR36 optical biosensor using a GLM sensor chip coated with Protein A for mAb capture. Running buffer included 10 mM EPES, 150 mM NaCl, pH 7.4 with 0.05 tween-20 with 0.2 mg/ml BSA. Data were collected at 25 degrees C. All mAbs were diluted into running buffer to 2 ug/ml based on the stock concentration provided. Each was then captured for 40 seconds over a Protein A surface.
hTfR (100 ug) was dissolved into […] of water to yield a 4.3 uM stock concentration. hTfR was dilted to 43 nM as the highest concentration and tested in a 3 fold dilution series. hTfR was injected at 200 ul/min for 2 minutes followed by a one-hour dissociation phase.

The target is the same in experiment [8]. Description: ELISA, biotinylated antibody on hTfR captured by plate-coated HFE (HFE+TfR); fit: specific binding with Hill slope.

T3 sequence (P02786 89-760 limits assumed): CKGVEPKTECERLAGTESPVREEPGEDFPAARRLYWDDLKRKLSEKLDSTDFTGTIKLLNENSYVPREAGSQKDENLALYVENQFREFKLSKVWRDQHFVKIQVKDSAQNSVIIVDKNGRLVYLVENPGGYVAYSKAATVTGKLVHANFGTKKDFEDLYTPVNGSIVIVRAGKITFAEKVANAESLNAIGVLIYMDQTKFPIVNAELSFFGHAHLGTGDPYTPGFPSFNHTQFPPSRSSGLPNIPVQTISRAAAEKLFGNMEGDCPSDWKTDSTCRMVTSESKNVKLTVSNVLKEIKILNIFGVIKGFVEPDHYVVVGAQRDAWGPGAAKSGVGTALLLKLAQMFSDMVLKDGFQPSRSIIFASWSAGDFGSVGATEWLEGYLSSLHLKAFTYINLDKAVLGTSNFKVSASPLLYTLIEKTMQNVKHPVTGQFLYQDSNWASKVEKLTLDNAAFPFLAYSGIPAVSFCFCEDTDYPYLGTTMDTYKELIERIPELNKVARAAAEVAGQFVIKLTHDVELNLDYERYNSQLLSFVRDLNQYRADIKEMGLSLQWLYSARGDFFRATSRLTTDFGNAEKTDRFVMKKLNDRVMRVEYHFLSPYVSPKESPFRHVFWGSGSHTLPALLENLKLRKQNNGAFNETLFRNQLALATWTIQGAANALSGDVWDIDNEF
T2 sequence (P02786 89-760 limits assumed): as above
T4 sequence (chain, as listed by the source C07H C07H): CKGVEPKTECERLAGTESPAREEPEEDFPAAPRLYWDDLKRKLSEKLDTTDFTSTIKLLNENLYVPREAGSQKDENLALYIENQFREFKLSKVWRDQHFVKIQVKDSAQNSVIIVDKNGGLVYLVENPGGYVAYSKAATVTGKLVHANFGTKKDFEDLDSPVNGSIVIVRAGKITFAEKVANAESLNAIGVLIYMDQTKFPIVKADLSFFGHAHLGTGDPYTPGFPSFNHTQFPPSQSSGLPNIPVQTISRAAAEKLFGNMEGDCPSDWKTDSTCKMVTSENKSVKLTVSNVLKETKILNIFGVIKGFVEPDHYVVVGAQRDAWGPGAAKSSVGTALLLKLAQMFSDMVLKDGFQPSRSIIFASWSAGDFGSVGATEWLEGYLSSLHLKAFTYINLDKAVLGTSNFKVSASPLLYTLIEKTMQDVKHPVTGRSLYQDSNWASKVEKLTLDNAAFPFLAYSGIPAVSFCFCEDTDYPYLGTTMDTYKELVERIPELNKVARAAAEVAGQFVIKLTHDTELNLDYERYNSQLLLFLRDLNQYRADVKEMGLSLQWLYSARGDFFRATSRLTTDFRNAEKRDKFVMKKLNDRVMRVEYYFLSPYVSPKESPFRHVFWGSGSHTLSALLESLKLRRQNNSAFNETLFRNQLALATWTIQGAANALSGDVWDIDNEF

B1: 13E4-Variant 15i (antibody, human IgG1, kappa, L234A L235A)
heavy: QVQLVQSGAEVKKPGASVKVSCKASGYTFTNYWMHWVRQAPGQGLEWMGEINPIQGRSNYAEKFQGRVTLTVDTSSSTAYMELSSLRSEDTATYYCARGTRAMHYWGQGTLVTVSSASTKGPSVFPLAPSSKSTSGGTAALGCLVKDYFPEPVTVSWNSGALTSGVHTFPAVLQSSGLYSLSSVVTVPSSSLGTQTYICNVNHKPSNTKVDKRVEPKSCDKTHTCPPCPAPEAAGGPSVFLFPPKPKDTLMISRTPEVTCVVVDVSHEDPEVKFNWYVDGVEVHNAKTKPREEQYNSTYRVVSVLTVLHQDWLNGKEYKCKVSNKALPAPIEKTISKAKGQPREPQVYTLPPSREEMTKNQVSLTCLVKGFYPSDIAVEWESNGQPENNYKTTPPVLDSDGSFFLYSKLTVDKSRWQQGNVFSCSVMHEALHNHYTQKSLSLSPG
light: DIQMTQSPSSLSASVGDRVTITCRTSENIYSNLAWYQQKPGKAPKLLIYAGTNLADGVPSRFSGSGSGTDYTLTISSLQPEDFANYYCQHFWGTPLTFGGGTKVEIKRTVAAPSVFIFPPSDEQLKSGTASVVCLLNNFYPREAKVQWKVDNALQSGNSQESVTEQDSKDSTYSLSSTLTLSKADYEKHKVYACEVTHQGLSSPVTKSFNRGEC
notes: Humanized hIgG1 with Fc mutations; also called hIgG1 TfR-Var15i
For the molecule B1, the binding result in experiment [1] is recorded as “no binding (tested: 1000 nM)”. Besides, in experiment [2], the Bmax turned out to be 95.3 % max binding, the Kd was found to be 7.13 pM and the h worked out at 1.29. Also, the “Kd(Tf+TfR)/Kd(TfR)” value in experiment [3] is 2.9. In experiment [4], this molecule came in with a Bmax of 3.47 A450, a Kd of 61.9 pM and a h of 1.56. In addition, the “Kd(HFE+TfR)/Kd(TfR)” value in experiment [5] came out at 8.5. Also, in experiment [6], the Bmax was 94.2 % max binding, the Kd is 12.5 pM and the h worked out at 1.55. In experiment [7], this molecule returned a Kd of 8.51 pM, a koff of 6.13e-06 s⁻¹ and a kon of 720000 M⁻¹ s⁻¹. Also, in experiment [8], the Bmax is 2.7 A450, binding was characterised by a dissociation constant (Kd) of 182 pM and the h came to 1.65.

B2: 13E4-Variant 15ii (antibody, human IgG1, kappa, L234A L235A)
heavy: QVQLVQSGAEVKKPGASVKVSCKASGYTFTNYWMHWVRQAPGQGLEWMGEINPIQGRSNYAEKFQGRVTLTVDTSSSTAYMELSSLRSEDTATYYCARGTRAMHYWGQGTLVTVSSASTKGPSVFPLAPSSKSTSGGTAALGCLVKDYFPEPVTVSWNSGALTSGVHTFPAVLQSSGLYSLSSVVTVPSSSLGTQTYICNVNHKPSNTKVDKRVEPKSCDKTHTCPPCPAPEAAGGPSVFLFPPKPKDTLMISRTPEVTCVVVDVSHEDPEVKFNWYVDGVEVHNAKTKPREEQYNSTYRVVSVLTVLHQDWLNGKEYKCGVSNKALPAPIEKTISKAKGQPREPQVYTLPPSREEMTKNQVSLTCLVKGFYPSDIAVEWESNGQPENNYKTTPPVLDSDGSFFLYSKLTVDKSRWQQGNVFSCSVMHEALHNHYTQKSLSLSPG
light: B1 light
notes: Humanized hIgG1 with Fc mutations; also called hIgG1 TfR-Var15ii
Regarding B2, the binding result in experiment [1] is “no binding (tested: 1000 nM)”. In experiment [2], the Bmax worked out at 93.7 % max binding, the equilibrium dissociation constant (Kd) came out at 9.87 pM and the h amounted to 1.25. Also, the “Kd(Tf+TfR)/Kd(TfR)” value in experiment [3] was 2.5. In experiment [4], this molecule yielded a Bmax of 3.52 A450, a Kd of 84.9 pM and a h of 1.46. In addition, the “Kd(HFE+TfR)/Kd(TfR)” value in experiment [5] is 10.2. Further, in experiment [6], the Bmax worked out at 94.4 % max binding, the Kd was determined as 17.9 pM and the h amounted to 1.53. In experiment [7], this molecule displayed an equilibrium dissociation constant (Kd) of 13.1 pM, a koff of 9.14e-06 s⁻¹ and a kon of 697000 M⁻¹ s⁻¹. In experiment [8], this molecule showed a Bmax of 2.79 A450, a Kd of 346 pM and a h of 1.28.
